3 molecules from US20220170038A1 (COMMONWEALTH SCIENTIFIC INDUSTRIAL RESEARCH ORGANISATION, published 2022) can be followed below.

First the molecules themselves.
T1: scar9::GG::NifU::HA (MPP-processed product of the MTP-FAγ51::NifU::HA fusion polypeptide encoded by SN32) (Klebsiella oxytoca, UniProt P05343 1-274)
T1 construct: also called scar9::NifU::HA; processed NifU
T1 sequence: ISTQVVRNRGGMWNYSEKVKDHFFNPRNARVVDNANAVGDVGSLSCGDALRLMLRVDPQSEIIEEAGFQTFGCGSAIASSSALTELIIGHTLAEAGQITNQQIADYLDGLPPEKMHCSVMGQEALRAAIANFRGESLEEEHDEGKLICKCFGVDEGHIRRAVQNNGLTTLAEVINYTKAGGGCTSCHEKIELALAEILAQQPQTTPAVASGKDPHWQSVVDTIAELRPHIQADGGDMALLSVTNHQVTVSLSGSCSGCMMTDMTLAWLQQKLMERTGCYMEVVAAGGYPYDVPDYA

T2: scar9::GG::NifS::HA (MPP-processed product of the MTP-FAγ51::NifS::HA fusion polypeptide encoded by SN31) (Klebsiella oxytoca, UniProt P05344 1-397)
T2 construct: This processed form was the one found in the eluate with NifU::TS; also called scar9-NifS::HA; processed NifS
T2 sequence: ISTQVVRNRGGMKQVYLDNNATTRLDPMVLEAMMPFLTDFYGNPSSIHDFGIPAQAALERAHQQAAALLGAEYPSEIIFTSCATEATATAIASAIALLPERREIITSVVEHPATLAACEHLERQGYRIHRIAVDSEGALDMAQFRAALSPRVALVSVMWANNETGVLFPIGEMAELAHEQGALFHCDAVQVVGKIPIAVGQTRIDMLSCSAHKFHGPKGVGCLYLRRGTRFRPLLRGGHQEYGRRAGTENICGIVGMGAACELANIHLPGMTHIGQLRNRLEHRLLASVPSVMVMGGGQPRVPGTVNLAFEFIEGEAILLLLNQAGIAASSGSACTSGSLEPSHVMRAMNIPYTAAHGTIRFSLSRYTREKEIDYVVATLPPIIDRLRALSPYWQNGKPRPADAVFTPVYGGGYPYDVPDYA

B1: scar9::NifS::TS (MPP-processed product of the MTP-FAγ51::NifS::TwinStrep fusion polypeptide encoded by SN231) (enzyme)
chain: not shown
notes: Bait in the reverse pull-down; the text names scar9::NifS::TS in the eluate; also called MTP-FAγ51::NifS::TS
B2: MTP-FAγ51::NifS::HA fusion polypeptide encoded by SN31, unprocessed form (enzyme)
chain: MMAMAVFRREGRRLLPSIAARPIAAIRSPLSSDQEEGLLGVRSISTQVVRNRGGMKQVYLDNNATTRLDPMVLEAMMPFLTDFYGNPSSIHDFGIPAQAALERAHQQAAALLGAEYPSEIIFTSCATEATATAIASAIALLPERREIITSVVEHPATLAACEHLERQGYRIHRIAVDSEGALDMAQFRAALSPRVALVSVMWANNETGVLFPIGEMAELAHEQGALFHCDAVQVVGKIPIAVGQTRIDMLSCSAHKFHGPKGVGCLYLRRGTRFRPLLRGGHQEYGRRAGTENICGIVGMGAACELANIHLPGMTHIGQLRNRLEHRLLASVPSVMVMGGGQPRVPGTVNLAFEFIEGEAILLLLNQAGIAASSGSACTSGSLEPSHVMRAMNIPYTAAHGTIRFSLSRYTREKEIDYVVATLPPIIDRLRALSPYWQNGKPRPADAVFTPVYGGGYPYDVPDYA
notes: Present in the soluble input sample but not detected in the eluate; also called unprocessed NifS; unprocessed MTP-FAγ51::NifS
B3: scar9::GG::NifU::TS (MPP-processed product of the MTP-FAγ51::NifU::TwinStrep fusion polypeptide encoded by SN166) (other)
chain: not shown
notes: Expressed in N. benthamiana leaves with mitochondrial targeting; N-terminal analysis and the tryptic peptide ISTQVVR confirmed cleavage at the intended MPP site; SEC indicated a heterotetramer of 2 NifS and 2 NifU; also called scar9-NifU::TS; scar9-NifU-TwinStrep

The target in assay [1] is T1, scar9::GG::NifU::HA (MPP-processed …). In words: StrepTactinXT pull-down of NifS::TS from leaves co-infiltrated with SN231 and SN32; anti-Strep and anti-HA Western blots.
Assay [2] addresses B3. In words: StrepTactinXT pull-down of NifU::TS from N. benthamiana leaves co-infiltrated with SN31 and SN166, anaerobic non-denaturing extraction; anti-HA Western blot of the eluate.
Assay [3] concerns the target T2, scar9::GG::NifS::HA (MPP-processed …). Put plainly: StrepTactinXT pull-down of NifU::TS from leaves co-infiltrated with SN31 and SN166, first purification; anti-Strep and anti-HA Western blots.

Consider B1, for which, in assay [1], the binding result is reported as “binds”.
In the case of B2, in assay [2], the binding result was “no binding”.
As for B3, in assay [3], the binding result is given as “binds”.
